Results published in patent US20140045742A1.
Where no end group is shown, it is not given here.

The binders below were run against HIV HR1 peptide (heptad repeat 1) (HIV) (assay: SPR (BIAcore), HIV HR1 peptide immobilized on CM5 chip).

Row | Binder | Ka [M⁻¹] | Kd [nM] | koff [s⁻¹] | kon [M⁻¹ s⁻¹]
1 | fusion polypeptide FP-1 (protein) GRTEAAGAMFLEAIPMSGGGGSGGGGSGGGGTWQEWEQKITALLEQAQIQQEKNEYELQKLDKWASLWEWF | 6.29e+08 | 1.59 | 0.000361 | 227000
2 | fusion polypeptide FP-2 (protein) GRGTEAAGAMFLEAIPMSTTWMEWDKEINNYTSLIHSLIEESQNQQEKNEQELL | 1.08e+10 | 0.0924 | 0.000119 | 1.29e+06
3 | fusion polypeptide FP-3 (protein) GKSGTEAAGAMFLEAIPMSGGGGSGGGGSGGGGTTWEAWDRAIAEYAARIEALIRAAQEQQERNEAALREL | 3.22e+10 | 0.031 | 3.07e-05 | 991000

The binders below were run against alpha1-antitrypsin, P01009 (assay: in vitro association of the serpin-finger polypeptide with alpha1-antitrypsin).
alpha1-antitrypsin, P01009, sequence (P01009 25-418 limits assumed): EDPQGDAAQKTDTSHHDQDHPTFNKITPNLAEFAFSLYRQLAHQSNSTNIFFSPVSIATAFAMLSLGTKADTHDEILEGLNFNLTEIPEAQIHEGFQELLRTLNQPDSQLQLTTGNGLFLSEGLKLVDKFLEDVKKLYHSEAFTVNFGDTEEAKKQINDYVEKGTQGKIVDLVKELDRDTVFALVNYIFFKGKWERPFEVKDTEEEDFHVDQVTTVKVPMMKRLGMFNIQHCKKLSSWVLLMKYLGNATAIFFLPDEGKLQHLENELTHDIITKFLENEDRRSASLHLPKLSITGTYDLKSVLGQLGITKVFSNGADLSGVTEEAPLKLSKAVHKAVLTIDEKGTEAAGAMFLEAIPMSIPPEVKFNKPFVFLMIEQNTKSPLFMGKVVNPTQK

Row | Binder | in vitro association T1/2 [h]
4 | Ac-TEAAGAMFLEAIVM | 10
5 | Ac-SEAAASMFLEAI | 4
6 | Ac-TEAAGAMFFEAIPM | 10
7 | Ac-TAVVIA [Ac-TAVVIA] | 16
8 | Ac-SEAAASTAVVIA | 1.4
9 | Ac-TEAAGATAVVIA | 9.5
10 | Ac-TDAAGATAVVIA | 16
11 | Ac-SDAAGAMFLEAI | 16
